Assay results from US20140079714A1 (published 2014).

T1: human interleukin 12 (hIL-12), p70 heterodimer of p35 and p40 (human, UniProt P29459 23-219; P29460 23-328)
T1 sequence (looked up) 1: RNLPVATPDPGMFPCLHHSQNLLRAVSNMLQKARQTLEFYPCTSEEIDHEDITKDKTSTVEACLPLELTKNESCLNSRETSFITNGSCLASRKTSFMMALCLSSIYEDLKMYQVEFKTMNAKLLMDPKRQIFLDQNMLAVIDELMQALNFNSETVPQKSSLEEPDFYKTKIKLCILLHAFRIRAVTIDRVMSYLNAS
T1 sequence (looked up) 2: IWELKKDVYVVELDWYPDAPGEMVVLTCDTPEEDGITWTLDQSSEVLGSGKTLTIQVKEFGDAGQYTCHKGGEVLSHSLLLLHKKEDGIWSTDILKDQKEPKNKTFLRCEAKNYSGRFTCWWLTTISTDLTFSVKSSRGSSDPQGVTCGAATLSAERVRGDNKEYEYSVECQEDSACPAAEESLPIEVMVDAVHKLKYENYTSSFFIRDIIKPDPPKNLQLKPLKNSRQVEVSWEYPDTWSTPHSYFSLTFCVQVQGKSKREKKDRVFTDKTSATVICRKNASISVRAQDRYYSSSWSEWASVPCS


Assays:
[1] = molecular target: T1, human interleukin 12 (hIL-12), p70 …; assay: cell-based or functional assay
[2] = molecular target: T1, human interleukin 12 (hIL-12), p70 …; assay: RB assay: inhibition of IL-12 binding to its receptor
[3] = molecular target: T1, human interleukin 12 (hIL-12), p70 …; assay: koff, Table 2 (surface plasmon resonance per text)
[4] = molecular target: T1, human interleukin 12 (hIL-12), p70 …; assay: cell-based or functional assay; remark: listed apart in the source

| Binder | IFN gamma IC50 [1] [nM] | IC50 [2] [nM] | PHA assay IC50 [1] [nM] | koff [3] [s⁻¹] | PHA assay IC50 (M) p70:p40 1:0 [4] [M] | PHA assay IC50 (M) p70:p40 1:20 [4] [M] | PHA assay IC50 (M) p70:p40 1:50 [4] [M] |
| --- | --- | --- | --- | --- | --- | --- | --- |
| Y61-L50Y (antibody, V domains shown) VH: QVQLVQSGGGVVQPGRSLRLSCAASGFTFSSYGMHWVRQAPGKGLEWVAFIRYDGSNKYYADSVKGRFTISRDNSKNTLYLQMKSLRAEDTAVYYCKTHGSHDNWGQGTMVTVSS VL: SYVLTQPPSVSGTPGQRVTISCSGGRSNIGSNTVKWYQQLPGTAPKLLIYYNDQRPSGVPDRFSGSKSGTSASLAITGVQAEDEADYYCQSYDRGTHPALLFGTGTKVTVLG | 0.02 | 0.02 |  |  |  |  |  |
| Y61-L50Y* IgG (antibody, V domains shown, IgG) VH: QVQLVQSGGGVVQPGRSLRLSCAASGFTFSSYGMHWVRQAPGKGLEWVAFIRYDGSNKYYADSVKGRFTISRDNSKNTLYLQMKSLRAEDTAVYYCKTHGSHDNWGQGTMVTVSS VL: SYVLTQPPSVSGTPGQRVTISCSGGRSNIGSNTVKWYQQLPGTAPKLLIYYNDQRPSGVPDRFSGSKSGTSASLAITGVQAEDEADYYCQSYDRGTHPALLFGTGTKVTVLG | 0.03 |  | 0.02 | 6.98e-05 |  |  |  |
| Y61-L94Y IgG (antibody, V domains shown, IgG) VH: QVQLVQSGGGVVQPGRSLRLSCAASGFTFSSYGMHWVRQAPGKGLEWVAFIRYDGSNKYYADSVKGRFTISRDNSKNTLYLQMKSLRAEDTAVYYCKTHGSHDNWGQGTMVTVSS VL: SYVLTQPPSVSGTPGQRVTISCSGGRSNIGSNTVKWYQQLPGTAPKLLIYGNDQRPSGVPDRFSGSKSGTSASLAITGVQAEDEADYYCQSYDRYTHPALLFGTGTKVTVLG | 0.04 | 0.06 | 0.05 | 0.000127 |  |  |  |

Further lines, results first:

| IFN gamma IC50 [1] [nM] | IC50 [2] [nM] | PHA assay IC50 [1] [nM] | koff [3] [s⁻¹] | PHA assay IC50 (M) p70:p40 1:0 [4] [M] | PHA assay IC50 (M) p70:p40 1:20 [4] [M] | PHA assay IC50 (M) p70:p40 1:50 [4] [M] | Binder |
| --- | --- | --- | --- | --- | --- | --- | --- |
| 0.02 |  | 0.06 | 2.99e-05 |  |  |  | Y-61-L50Y-H31E**gG (antibody, V domains shown, also called Y61-L50Y-H31E IgG) VH: QVQLVQSGGGVVQPGRSLRLSCAASGFTFSEYGMHWVRQAPGKGLEWVAFIRYDGSNKYYADSVKGRFTISRDNSKNTLYLQMKSLRAEDTAVYYCKTHGSHDNWGQGTMVTVSS VL: SYVLTQPPSVSGTPGQRVTISCSGGRSNIGSNTVKWYQQLPGTAPKLLIYYNDQRPSGVPDRFSGSKSGTSASLAITGVQAEDEADYYCQSYDRGTHPALLFGTGTKVTVLG |
|  |  |  |  | 3.5e-09 | 2.5e-09 | 4e-09 | 149-7 (antibody, V domains shown) VH: TTHGSHDNWGQG VL: QSYDRDFTGSRV |
